According to patent US20100190693A1:

What was measured:
[1] = target: CBP (endogenous, HIT cells) (hamster); assay: cell-based or functional assay
KIX-VP16 = KIX-VP16 (UniProt Q92793); assay: cell-based or functional assay
KIX-VP16, sequence (Q92793 587-666): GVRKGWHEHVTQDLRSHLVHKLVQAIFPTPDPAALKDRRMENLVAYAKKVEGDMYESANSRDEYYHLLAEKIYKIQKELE

GAL4 luciferase reporter in HIT cells, response to cAMP [1] [fold] | Substance | GAL4 luciferase reporter, mammalian two-hybrid assay in HIT cells, forskolin (KIX-VP16) [fold]
2.5 | GAL4-CREB M1 (Ser133Ala) (from UniProt P04386 1-147; P16220 1-341) | 
10 | GAL4-CREB, wild-type (from UniProt P04386 1-147; P16220 1-341) | 
 | GAL4-KID (from UniProt P16220 87-146) | 20
